Experimental data published in PMC7555452, “Functional Characterization of a Putative RNA Demethylase ALKBH6 in Arabidopsis Growth and Abiotic Stress Responses”.

T1: ALKBH6 (Arabidopsis thaliana, UniProt Q9SUP1 1-241)
T1 sequence: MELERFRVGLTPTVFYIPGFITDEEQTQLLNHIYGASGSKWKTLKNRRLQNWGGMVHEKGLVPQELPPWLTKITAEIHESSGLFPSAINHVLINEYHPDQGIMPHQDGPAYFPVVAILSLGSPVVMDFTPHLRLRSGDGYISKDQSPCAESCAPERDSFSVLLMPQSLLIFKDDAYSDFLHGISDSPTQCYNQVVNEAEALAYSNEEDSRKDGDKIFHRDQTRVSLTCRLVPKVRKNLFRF


Target: T1, ALKBH6
Experiment: EMSA; 3, 5, 7 uM protein; 10 mM Tris-HCl pH 8.0, 150 mM NaCl, 1.0 mM EDTA, 10% glycerol; 5.0 pmol RNA in 20 uL, on ice 30 min; 6% native PAGE, 0.25x TBE, 4 °C
Details: protein: recombinant; tags: His-TF (pCold TF) fusion, cleaved with HRV 3C protease; Ni-NTA purified; label: 5'-fluorescein

| Binder | binding result |
| --- | --- |
| GAAUCCGAACUAGUUCU (ssRNA) [SOS3 RNA unmodified] | binds |
| GGACGCUUCUUCGACCU (ssRNA) [m5C motif RNA unmodified] | binds |
| CGUAGGCUACAGAGAAGCCUU (ssRNA) [MAT2A RNA unmodified] | binds |
| GAAUCCGAACUAGUUCU (ssRNA, m6A at position 9) [SOS3 RNA m6A] | binds |
| CGUAGGCUACAGAGAAGCCUU (ssRNA, m6A at position 11) [MAT2A RNA m6A] | binds |
| GGACGCUUCUUCGACCU (ssRNA, m5C at position 9) [m5C motif RNA m5C] | binds |
